Drawing on CN113265001A (HUADAO SHANGHAI BIOMEDICAL CO LTD, dated 2021), this text covers Kd, koff and kon for 1 molecule.

This test concerns the target T1, BCMA抗原 (antigen in solution, Biacore) (UniProt Q02223 1-54, limits assumed).
T1 construct: also called B细胞成熟抗原; CD269
T1 sequence (looked up): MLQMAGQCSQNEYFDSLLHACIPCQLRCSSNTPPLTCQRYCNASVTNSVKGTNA
Briefly: Biacore SPR, antibody immobilised on the chip, antigen in the mobile phase. On the technique in general: Surface plasmon resonance follows binding to a sensor surface in real time, without labels.

B1: BCMA-12 VHH-mIgG2a Fc 纳米抗体 (Fc fusion)
chain: EVQLVESGGDSVQAGGSLRLSCAVSGYTDSKNLMGWFRQAPGKEREGVAVIYTGGGRPVYADSVKGRFTISQDSAKNTVYLQMNSLKPEDTALYYCAADYLGGAWPFGAYRYWGQGTQVTVSS
notes: also called BCMA VHH B12; BCMA VHH抗体; not shown: mouse IgG2a Fc tag of vector C-4 pCP.Stuffer-mCg2a-FC
As to B1, the Kd (usually the constant that tells how readily two partners part at equilibrium) was 0.0634 nM; the off-rate (koff) (usually the first-order rate constant of dissociation) worked out at 0.000429 s⁻¹; the on-rate constant (kon) – broadly, the rate constant with which the complex forms – amounted to 6.77e+06 M⁻¹ s⁻¹.
